Literature values, collected in US20260201061A1, “COMBINATION FOR TREATMENT AND PREVENTION OF CANCER” (Hummingbird Bioscience Pte. Ltd., priority 2022, published 2026).

B1: ISU104: anti-HER3 antibody, mainly binds to domain III of HER3 (antibody, chains of the INN, looked up, V domains shown)
VH: EVQLLESGGGLVQPGGSLRLSCAASGFTFSDYDMSWVRQAPGKGLEWVSTIDLDSGSIYYADSVQGRFTISRDNSKNTLYLQMNSLRAEDTAVYYCAKDLHMGPEGPFDYWGQGTLVTVSS
VL: QSVLTQPPSASGTPGQRVTISCSGSSSNIGSNSVSWYQQLPGTAPKLLIYSDNHRPSGVPDRFSGSKSGTSASLAISGLRSEDEADYYCQGWDTSLSGHVFGGGTKLTVL
B2: seribantumab: anti-HER3 antibody (antibody, chains of the INN, looked up)
heavy: EVQLLESGGGLVQPGGSLRLSCAASGFTFSHYVMAWVRQAPGKGLEWVSSISSSGGWTLYADSVKGRFTISRDNSKNTLYLQMNSLRAEDTAVYYCTRGLKMATIFDYWGQGTLVTVSSASTKGPSVFPLAPCSRSTSESTAALGCLVKDYFPEPVTVSWNSGALTSGVHTFPAVLQSSGLYSLSSVVTVPSSNFGTQTYTCNVDHKPSNTKVDKTVERKCCVECPPCPAPPVAGPSVFLFPPKPKDTLMISRTPEVTCVVVDVSHEDPEVQFNWYVDGVEVHNAKTKPREEQFNSTFRVVSVLTVVHQDWLNGKEYKCKVSNKGLPAPIEKTISKTKGQPREPQVYTLPPSREEMTKNQVSLTCLVKGFYPSDIAVEWESNGQPENNYKTTPPMLDSDGSFFLYSKLTVDKSRWQQGNVFSCSVMHEALHNHYTQKSLSLSPG
light: QSALTQPASVSGSPGQSITISCTGTSSDVGSYNVVSWYQQHPGKAPKLIIYEVSQRPSGVSNRFSGSKSGNTASLTISGLQTEDEADYYCCSYAGSSIFVIFGGGTKVTVLGQPKAAPSVTLFPPSSEELQANKATLVCLVSDFYPGAVTVAWKADGSPVKVGVETTKPSKQSNNKYAASSYLSLTPEQWKSHRSYSCRVTHEGSTVEKTVAPAECS

Biological target: HER3 (Homo sapiens, UniProt P21860)

Molecule | inhibition of binding of heregulin (HRG)/ligand to HER3
Patritumab: anti-HER3 antibody [reference compound] | inhibit HER3-mediated signaling by blocking binding of heregulin (HRG) to HER3
B1 | dose-dependent inhibition of binding of HRG to HER3
B2 | inhibit HER3-mediated signaling by blocking binding of heregulin (HRG) to HER3
